Source: the supplement of paper PMC7877785
± gives the uncertainty stated by the source.

Test: self-splicing fitness, log relative to wild type (ln ratio); higher = more splicing; Tetrahymena group I intron in knt gene, E. coli kanamycin selection, DiMSum; sequences stand for … in CUCUCU…GGAGGGAAAAGUUAUCAGGCAUGCACCUGGUAGCUAGUCUUUAAACCAAUAGAUUGCAUCGGUUUAAAAGGCAAGACCGUCAAAUUGCGGGAAAGGGGUCAACAGCCGUUCAGUACCAAGUCUCAGGGGAAACUUUGAGAUGGCCUUGCAAAGGGUAUGGUAAUAAGCUGACGGACAUGGUCCUAACCACGCAGCCAAGUCCUAAGUCAACAGAUCUUCUGUUGAUAUGGAUGCAGUUCACAGACUAAAUGUCGGUCGGGGAAGAUGUAUUCUUCUCAUAAGAUAUAGUCGGACCUCUCCUUAAUGGGAGCUAGCGGAUGAAGUGAUGCAACACUGGAGCCGCUGGGAACUAAUUUGUAUGCGAAAGUAUAUUGAUUAGUUUUGGAGUACUCGUGGUCG
Method in brief: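 Fitness was computed with DiMSum as the error-weighted combination of replicate fold changes, kanamycin versus none, each normalised to wild type. The library randomised all eight intron nucleotides of the P1ex region, with the intron placed in the knt kanamycin-resistance gene on pET-22b(+) in E. coli BL21(DE3). Six replicate transformations were grown overnight at 37°C or 30°C on LB agar with or without 25 μg/mL kanamycin, plus 100 μg/mL carbenicillin, 50 μM IPTG and 0.2% rhamnose. Pooled colonies were amplicon-sequenced on an Illumina HiSeq 2500.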

| Sequence | self-splicing fitness (ln) (30 °C) | self-splicing fitness (ln) (37 °C) |
| --- | --- | --- |
| UAGCAGCAAUAUUACGCCAU | -4.36 ± 0.3 | -2.32 ± 0.14 |
| CCUAAGCAAUAUUACGAUCA | -3.57 ± 0.28 | -3 ± 0.25 |
| GCGGAGCAAUAUUACGGUUA | -2.84 ± 0.29 | -0.698 ± 0.21 |
| GCCUAGCAAUAUUACGCUGU | -0.847 ± 0.09 | 0.254 ± 0.096 |
| GCAGAGCAAUAUUACGCGCG | -2.8 ± 0.17 | -1.49 ± 0.14 |
| ACUAAGCAAUAUUACGAACG | -1.1 ± 0.1 | -0.438 ± 0.15 |
| ACGAAGCAAUAUUACGAGAG | -3.39 ± 0.28 | -2.53 ± 0.22 |
| UCGCAGCAAUAUUACGUCGC | -3.2 ± 0.37 | – |
| UACGAGCAAUAUUACGCAGA | – | -2.33 ± 0.31 |
| UGAAAGCAAUAUUACGGCCU | -0.0439 ± 0.16 | 0.493 ± 0.18 |
| ACUAAGCAAUAUUACGUCGG | -1.99 ± 0.068 | -1.04 ± 0.087 |
| AGGAAGCAAUAUUACGUCUA | -0.335 ± 0.092 | -0.143 ± 0.1 |
| UCAAAGCAAUAUUACGGUAC | -3.28 ± 0.16 | -2.71 ± 0.22 |
| UUAGAGCAAUAUUACGUGAA | -2.16 ± 0.12 | -0.588 ± 0.13 |
| GGAUAGCAAUAUUACGUGUA | -2.33 ± 0.13 | -2.18 ± 0.12 |
| GUCAAGCAAUAUUACGUUCU | -1.88 ± 0.07 | -1.3 ± 0.087 |
| UAAUAGCAAUAUUACGCUCA | -0.0964 ± 0.088 | -0.235 ± 0.096 |
| GUCAAGCAAUAUUACGAAUU | -3.06 ± 0.18 | -1.82 ± 0.17 |
| AAUAAGCAAUAUUACGCGGC | -2.74 ± 0.24 | -2.03 ± 0.33 |
| UGUCAGCAAUAUUACGGCGG | -0.922 ± 0.084 | 0.0377 ± 0.12 |

| Sequence | self-splicing fitness (ln) (30 °C) | self-splicing fitness (ln) (37 °C) |
| --- | --- | --- |
| CAGCAGCAAUAUUACGAAAC | -3.65 ± 0.23 | – |
| GCUCAGCAAUAUUACGGACA | -1.25 ± 0.14 | -0.983 ± 0.13 |
| AGGAAGCAAUAUUACGCAUU | -3.7 ± 0.35 | -2.13 ± 0.26 |
| AUGUAGCAAUAUUACGCCAG | -3.46 ± 0.31 | -1.05 ± 0.31 |
| GUCUAGCAAUAUUACGCGAU | -1.94 ± 0.21 | -2.29 ± 0.23 |
| GGCGAGCAAUAUUACGCGUA | -1.09 ± 0.17 | -0.484 ± 0.15 |
| GUCAAGCAAUAUUACGCAGG | -4.19 ± 0.36 | -2.3 ± 0.3 |
| CACGAGCAAUAUUACGAUCC | – | -1.9 ± 0.47 |
| AGCGAGCAAUAUUACGAGGC | -3.16 ± 0.44 | – |
| CACAAGCAAUAUUACGACAA | -3.12 ± 0.2 | -2.04 ± 0.17 |
| GCCAAGCAAUAUUACGUAGG | -3.32 ± 0.18 | -1.78 ± 0.17 |
| CUAUAGCAAUAUUACGCGGG | -3.11 ± 0.28 | -2.88 ± 0.31 |
| UUAGAGCAAUAUUACGCUAG | -0.574 ± 0.12 | 0.349 ± 0.15 |
| CUAAAGCAAUAUUACGUUUU | -4.6 ± 0.26 | -2.58 ± 0.21 |
| CGUGAGCAAUAUUACGGCUG | -0.246 ± 0.073 | 0.0364 ± 0.094 |
| UCCAAGCAAUAUUACGUACA | -0.123 ± 0.1 | -0.835 ± 0.12 |
| UAUAAGCAAUAUUACGUCGU | -2.37 ± 0.12 | -1.69 ± 0.17 |
| CAUAAGCAAUAUUACGGGGC | -3.25 ± 0.26 | -1.22 ± 0.16 |
| AAUAAGCAAUAUUACGCGCA | -0.438 ± 0.081 | -0.0417 ± 0.11 |
